# Assay results from patent publication US20220332800A1 (Takeda / Millennium, published 2022).
# Tests used:
# [1] = biological target: T1, ZIKV-VLP (Native Antigen Inc.) (Zika virus); assay: ELISA, purified recombinant mAb
# T1 construct: also called Zika VLP; ZVLP
# [2] = biological target: T1, ZIKV-VLP (Native Antigen Inc.); assay: indirect ELISA, subclone supernatant
# [3] = biological target: T1, ZIKV-VLP (Native Antigen Inc.); assay: ELISA, hybridoma supernatant (Abcam data)
# [4] = biological target: T1, ZIKV-VLP (Native Antigen Inc.); assay: BLI binning on ZIKV-VLP; 1st mAb (row): C10
# [5] = biological target: T1, ZIKV-VLP (Native Antigen Inc.); assay: BLI binning on ZIKV-VLP; 1st mAb (row): 102-1
# [6] = biological target: T1, ZIKV-VLP (Native Antigen Inc.); assay: BLI binning on ZIKV-VLP; 1st mAb (row): 242-3
# [7] = biological target: T1, ZIKV-VLP (Native Antigen Inc.); assay: BLI binning on ZIKV-VLP; 1st mAb (row): 289-3
# [8] = biological target: T1, ZIKV-VLP (Native Antigen Inc.); assay: BLI binning on ZIKV-VLP; 1st mAb (row): 306-2
# [9] = biological target: T1, ZIKV-VLP (Native Antigen Inc.); assay: BLI binning on ZIKV-VLP; 1st mAb (row): 270-12
# [10] = biological target: T1, ZIKV-VLP (Native Antigen Inc.); assay: BLI binning on ZIKV-VLP; 1st mAb: 4G2
# [11] = biological target: T1, ZIKV-VLP (Native Antigen Inc.); assay: BLI binning on ZIKV-VLP; 1st mAb: Ab1
# [12] = biological target: T1, ZIKV-VLP (Native Antigen Inc.); assay: BLI binning on ZIKV-VLP; 1st mAb: Ab2
# [13] = biological target: T1, ZIKV-VLP (Native Antigen Inc.); assay: BLI binning on ZIKV-VLP; 1st mAb: C10
# [14] = biological target: T1, ZIKV-VLP (Native Antigen Inc.); assay: BLI binning on ZIKV-VLP; 1st mAb: 11-3
# [15] = biological target: T1, ZIKV-VLP (Native Antigen Inc.); assay: BLI binning on ZIKV-VLP; 1st mAb: 78-2
# [16] = biological target: T1, ZIKV-VLP (Native Antigen Inc.); assay: BLI binning on ZIKV-VLP; 1st mAb: 102-1
# [17] = biological target: T1, ZIKV-VLP (Native Antigen Inc.); assay: BLI binning on ZIKV-VLP; 1st mAb: 181-4
# [18] = biological target: T1, ZIKV-VLP (Native Antigen Inc.); assay: BLI binning on ZIKV-VLP; 1st mAb: 242-3
# [19] = biological target: T1, ZIKV-VLP (Native Antigen Inc.); assay: BLI binning on ZIKV-VLP; 1st mAb: 260-2
# [20] = biological target: T1, ZIKV-VLP (Native Antigen Inc.); assay: BLI binning on ZIKV-VLP; 1st mAb: 289-3
# [21] = biological target: T1, ZIKV-VLP (Native Antigen Inc.); assay: BLI binning on ZIKV-VLP; 1st mAb: 306-2
# [22] = biological target: T1, ZIKV-VLP (Native Antigen Inc.); assay: BLI binning on ZIKV-VLP; 1st mAb: 329-2
# [23] = biological target: T1, ZIKV-VLP (Native Antigen Inc.); assay: BLI binning on ZIKV-VLP; 1st mAb: 270-12
# [24] = biological target: T1, ZIKV-VLP (Native Antigen Inc.); assay: BLI (Octet), supernatant IgG captured on Protein A biosensor, ZIKV-VLP 3.3 µg/mL in solution, 1:1 model
# [25] = biological target: T1, ZIKV-VLP (Native Antigen Inc.); assay: indirect ELISA, purified antibody serially diluted from 10 µg/ml
Binder,OD [3],response of 2nd mAb [4],response of 2nd mAb [5],response of 2nd mAb [6],response of 2nd mAb [7],response of 2nd mAb [10],response of 2nd mAb [11],response of 2nd mAb [12],response of 2nd mAb [13],response of 2nd mAb [14],response of 2nd mAb [15],response of 2nd mAb [16],response of 2nd mAb [17],response of 2nd mAb [18],response of 2nd mAb [19],response of 2nd mAb [20],response of 2nd mAb [21],response of 2nd mAb [22],response of 2nd mAb [23],koff [24],further results
"anti-ZIKV antibody 242-3 (antibody, V domains shown, also called clone 242-3) VH: QAQLEESGGDLVKPEGSLTLTCTASGFSFTDRHYMCWIRQAPGKGLEWIACVYPGSSGSTYYASWARGRFTISKTSSTTVTLRMTSLTAADTATYFCARSSYPDSSGYSYGMDLWGPGTLVTVSS VL: DIVMTQTPASVEAAVGGTVTIKCQASQNINSNLAWYQQKPGQRPKFLMYLTSKLASGVPSRFRGSGSGTQFTLTISDLECADAATYYCQTYYDISNYGYAFGGGTEVVVK",0.97 OD,0.0363,0.0181,0.005,0.0219,0.93,0.25,7.67,5.12,0.4,0.18,0.1,0.02,0.08,0.06,0.04,0.08,-0.01,0.04,< 1e-07 s⁻¹,ELISA OD [1]: 3.07 OD; VLP (OD) binding [2]: 0.97 OD; response of 2nd mAb [8]: 0.0732; response of 2nd mAb [9]: 0.0325
"anti-ZIKV antibody 270-12 (antibody, V domains shown, also called clone 270-12) VH: QAQLEESGGDLVKPEGSLTLTCTASGFSFTDRHYMCWVRQAPGKGLEWIACVYPGSSGSTYYASWARGRFTISKTSSTTVTLRMTSLTAADTATYFCARSSYPDSSGYSYGMDLWGPGTLVTVSS VL: DIVMTQTPASVEAAVGGTVTIKCQASQDINSNLAWYQQKPGQRPKFLMYLTSKLASGVPSRFRGSGSGTQFTLTISDLECADAATYYCQTYYDISNYGYAFGGGTEVVVKG",1.27 OD,0.0344,-0.004,-0.0103,0.0261,0.91,0.34,3.5,4.27,0.47,0.44,0.07,0.01,0.04,0,0.02,0.31,0,0.02,–,response of 2nd mAb [8]: 0.0432; response of 2nd mAb [9]: 0.0171; EC50 [25]: 0.0128 µg/mL
"anti-ZIKV antibody 289-3 (antibody, V domains shown, also called clone 289-3; subclone 289-3) VH: QEELEESGGDLVKPGASLTLTCKASGFSFSSGAYICWVRQAPGKGPEWIACIYTGDGRTYYANWAKRRFTISSSSSTTVALEMPSLTDADTATYFCARAIAVGAGYGVGNYFTLWGPGTLVTVSS VL: DIVMTQTPSSVSAAVGGTVTINCHASENIYGYLSWYQQKPGQPPKLLIYKASTLASGVPSRFKGSGAGTQFTLTITALECADAATYYCQSYYTSSSNADGSENAFGGGTEVVVEG",0.94 OD,0.0265,0.0047,0.0011,0.0128,1.04,0.4,3.79,4.55,0.52,0.46,0.09,0.01,0.07,0.04,0.02,0.24,-0.01,0.02,0.000113 s⁻¹,ELISA OD [1]: 3.21 OD; VLP (OD) binding [2]: 0.94 OD; response of 2nd mAb [8]: 0.0428; response of 2nd mAb [9]: 0.0064; EC50 [25]: 0.00724 µg/mL
"anti-ZIKV antibody 306-2 (antibody, V domains shown) VH: QSLEESGGDLVKPGASLTLTCTASGFDFSDRYYMCWVRQAPGKGLEWIGCIYVGSGDTYYASWAKGRFTISRTSSTTVTLQMTRLTAADTATYFCARHPGTYFTLWGPGTLVTVSS VL: DVVMTQTPSSVSAAVGGTVTINCQASQNIVNNLAWYQQRPGQPPKLLIYDTSTLASGVPSRFKGSGSGTEFTLTISDLECADAATYYCQTYYYYNKIINGFGGGTEVVVKG",1.15 OD,-0.0006,0.0269,0.019,0.023,0.64,0.19,4.51,4.54,0.34,0.26,0.07,-0.02,0.04,0,0.03,0.01,-0.03,-0.01,< 1e-07 s⁻¹,ELISA OD [1]: 3.3 OD; VLP (OD) binding [2]: 1.15 OD; response of 2nd mAb [8]: 0.0225; response of 2nd mAb [9]: 0.0125
"anti-ZIKV antibody 78-2 (antibody, V domains shown, also called clone 78-2) VH: QQQLVESGGGLVKPGASLTLNCKASGLDFSTNSYMCWVRQAPGKGLEWIACIYVGDSSEIYYASWAKGRFTISKTSSTTVTLQMTSLTAADTATYFCARDLPSFTAPYAGYLRLWGPGTLVTVSS VL: QPVLTQPPSLSASLGTTARLTCTLRTGYNVGDYPLLWLQRVPGRPPRYLLTYHTEEFKHQGSGVHSRFSGSKDASENAGVLSISGLQPEDEANYYCYTVHATESSLHYVFGGGTQLTVTG",2.67 OD,–,–,–,–,0.52,0.38,2.46,3.41,0.42,0.06,0.32,0.3,0.33,0.33,0.32,0.28,0.33,0.28,< 1e-07 s⁻¹,EC50 [25]: 0.0319 µg/mL
"anti-ZIKV antibody 11-3 (antibody, V domains shown, also called clone 11-3) VH: QEQLVESGGGLVQPEGSLTITCTGSGFSFSSRFYMCWVRQAPGKGLEWIACIYGGSSGSTYYASWAKGRFTISKTSSTTVTLQISSLTAADTATYFCARGGSTAAAGFNLWGPGTLLTVSS VL: DVVMTQTPASVSATVGGTVTIKCQASEDIYNLLAWYQQKPGQPPKLLIYYASTLASGVPSRFKGSGSGTEFTLTISDLECADAATYYCQCNDYGGTYVPNAFGGGTEVVVKG",2.83 OD,–,–,–,–,0.75,0.41,2.71,3.14,0.06,0.23,0.45,0.39,0.42,0.47,0.42,0.43,0.44,0.38,< 1e-07 s⁻¹,EC50 [25]: 0.00657 µg/mL
